Here are results for 1 molecule from US20100305026A1.

The target of the test is CD44v6 (endogenous human CD44 variant isoforms containing exon v6) (human), P16070. As to the kind of experiment: cell-based or functional assay.

In turn, KEQWFGNRWHEGYR [human CD44v6 14-mer peptide having SEQ ID NO: 2] displayed an entry of InlB-coated latex beads into HeLa cells (block of entry) of 100%.
